Reference: the nanobody polyreactivity screen of Harvey et al. (2022)

Experiment: yeast display, Sf9 membrane polyspecificity reagent, FACS + sequencing; frameworks hold sequencing errors
Method in brief: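 Galactose induction of a Saccharomyces cerevisiae BJ5465 synthetic nanobody display library ran 36–48 hours. The cells were then stained for 1 hour at 4 °C with 10% biotinylated, detergent-solubilized Sf9 membrane reagent, pulled down on streptavidin microbeads and FACS-sorted into low and high (top ~1%) gates on expression and reagent-binding fluorescence. Labels for polyreactivity follow the gate of origin.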

## QVQLVESGGGLVQAGGSLRLSCAASGSIFYYNAMGWYRQAPGKERELVAAISWSGGSTYYADSVKGRFTISRDKAKNTVYLQMNSLKPEDTAVYYCNAVGWYTYFYGSRKYNSWGQGTQVTVSS
  polyreactivity (PSR sort gate): low polyreactivity

## QVQLVESGGGLVQAGGSLRLSCAASGLTFRYYAMGWYRQAPGKERELVAAITRRGSTYYADSVQGRFTISRDNAKNTVYLQMNSLKPEDTAVYYCAADDPYTPQYPDVTYDYWGQGTQVTVSS
  polyreactivity (PSR sort gate): high polyreactivity

## QVQLVESGGGLVQAGGSLRLSCAASGRIFSYNAMGWYRQAPGKERELFAAISSDGSTYYADSVKGRFTISRDNAKNTVYLEMNSLKPEDTAVYYCAARQVVWFVYTTAQVGSYKVNYWGQGTQVNVSS
  polyreactivity (PSR sort gate): low polyreactivity

## QVQLVESGGGLVQAGGSLRLSCAASGGIFRSYAMGWYRQAPGKERELVAAINYSGGSTYYADSVKGRFTISRDNAKNSVYLQMNSLKPEDTAVYYCASDGYIRQYVTYYYWGQGTQVTVSS
  polyreactivity (PSR sort gate): low polyreactivity

## QVQLVESGGGLVQAGGSLRLSCAASGSIFDDYAMGWYRQAPGKERELVAAIDYTGGSTYYADSVKGRFTISRDNAKNTVYLQMNSLIPEDTAVYYCAAEVRVYYYLGGGYSWGQGTQVTVSS
  polyreactivity (PSR sort gate): low polyreactivity

## QVQLVESGGGLVQAGGSLRLSCAASGNTFYWNAMGWYRRAPGKERELVAAISTTGVSTYYADSVKGRFTISRDKAKNTVYLQMNSLKPEDTAVYFCAAEIIGYHTIYDYWGQGTQVTVSS
  polyreactivity (PSR sort gate): low polyreactivity

## QVQLVESGGGLVQAGGSLRLSCAASGYIIRGYVMGWYRQAPGKERELVAAITSRGDSTYYADSVKGRFTISRDNAKNTVYLQMNSLIPEDTAVYYCYFYFRRQYEHEYWGQGTQVTVSS
  polyreactivity (PSR sort gate): high polyreactivity

## QVQLVESVGGLVQAGGSLRLSCAASGSIFVKNAMGWYRQAPGKEREFVAVISTGDSTHYADSVKGRFTISRDNAKNTVYLQMNSLKPEDTAVYYCAARYYSYGSSYGYWGQGTQVTVSS
  polyreactivity (PSR sort gate): high polyreactivity

## QFQLVESGGALVQAGGSLRLSCAASGSTFTGYTMGWYRQAPGKERELVAAINWSGGRTYYADSVKGRFTISRDNAKNTVYLQMNSLKPDDTAVYYCAVRSRSLGGYLGQGTQVTVSS
  polyreactivity (PSR sort gate): high polyreactivity

## QVQLVESGGGLVQAGGSLRLSCATSGRIFHRYAMGWYRQAPGKERELVAGISSSGGSTYADSVKGRFTISRDNAKNTVYLQMNSLKPEDTAVYYCAKYFTDVSRHTYDYWGQGTQVTVSS
  polyreactivity (PSR sort gate): high polyreactivity

## QVQLVESGGGLVQAGGSLRLSCAASGYIFPGNAMGWYRQAPGKERELVAAISSRGGRTYYADSVKGRFTISRDNAKNTVYLQMNSLKPEDTAVYYCAKGGKVGSTLEYDYWGQGTQVTVSS
  polyreactivity (PSR sort gate): high polyreactivity

## QVQLVESGGGLVQAGGSLRLSCAASGRTFWYYAMGWYRPAPGKERELVASISLSGSRTNYADSVKGRFTIARDNAKNTVYLQINRLKPEDTAVYYCAADNFRQFGEYDYLGQGTQVTVSS
  polyreactivity (PSR sort gate): low polyreactivity

## QVQLVESGGGLVQAGGSLRLSCAASGFIFTGNAMGWYRQAPGKERELVAAITQSGGHTSYADSVKGRFTISRDNAKNTVYLQMNSLKPEDTAVYYCNAEYTWPYHGVRNGWFNFKYEYWGQGTQVTVSS
  polyreactivity (PSR sort gate): low polyreactivity

## QVHLVESGGWLVQAGGSLRLSCAASGRTFHVYAMGWYRQAPGKERELVAAITWSGDSTYYADSVKGRFTISRDNAKNTVYLQMNSLKPEDTAVYYCAASQFWKYDYWGQGTQVTVSS
  polyreactivity (PSR sort gate): low polyreactivity

## QVQLVESGGGLVQAGGSLRLSCAASGSSFEGYVLGWYRQAPGKERELVATISFSGGSTYYADSVMGRFTISRDNAKNTVYLQMNSLKPVETAVYFSGASVRYKFYSVVSVRSEYWGQGTQVTVST
  polyreactivity (PSR sort gate): low polyreactivity

## QVQLVESVGGLVQAGGSLRLSCAASGNIFSSYAMGWYRQAPGKERELVARITTSAGRTYDADSVKGRFTISRDNAKNTVDLQMNSLKPEDTPVYYCAVDWYGSYGYGGSQNSDYWGQGTQVTVSS
  polyreactivity (PSR sort gate): high polyreactivity

## QVQLVESGGGLVQGGGSLRLSCAASGRTFQRYAMGWYRQAPGKERELVAAISNRGGSTYYADSVKGRFTISRDNAKNTVYLQMNSLKPEDTAVYYCRTSTPRRVSGNYWGQGTQVTVSS
  polyreactivity (PSR sort gate): high polyreactivity

## QVQLVESGGGLVQAGGRLPISCAASGLTFTSNAMGGYIQAPGKERELVASITWYGGSTSYADSVKGRFTISRDYAKNTVDFQMNSLKPEDTAVSYCAADAWRSYGYRAYYYWGQGTQVTVSS
  polyreactivity (PSR sort gate): high polyreactivity

## QVQLVESGGGLVQAGGSLRLSCAASGRTFAAYAMGWYRQAPGKERELGAAISSSSGNTYYADSVKGRFTISRDNAKNTVYLQMYSLKPEDTAVYYCNAQRRFNANYWYDYWGQGTQVTVAS
  polyreactivity (PSR sort gate): high polyreactivity

## QVQLVESGGGLVQAGGSLRLSCAASGRIFIYYTMGWYRQAPGKERELVASITWSGGRTYYADSVKGRFTISRDNAKNTVYLQMNSLKPEDTAVYYCNAGYSIGLVAYGYWGQGTQVTLSS
  polyreactivity (PSR sort gate): low polyreactivity

## QVQLVESGGGLVQAGGSLRLSCAASGSTFGYNDMGWYRQAPGKERELVAAISVSDSSTYYADSVKGRFTISRDYAKNTVYLQMNCLKPEDTAVYYCAAEYYVGFTYRYEYWGQGTQVTVSS
  polyreactivity (PSR sort gate): low polyreactivity

## QVQLVESGGGLVQAGGSLRLSCAASGRIFRYYAKGWYRQATGKERELVAAISWSGGSTYYADSVKGRFTISRDNAKNTVYLQMHSLKPEDTAVYYCNAAVTQFTHRWRRRITFDYWGQGTQVTVSS
  polyreactivity (PSR sort gate): high polyreactivity

## QVQLVESGGGLVQAGGSLRLSCAASGFTFSAYAMGWYRQAPGKERELVAAISWSGSRTYYADSVKGRFTISRDNAKNTVYLQMNSLKPEDTAVYYCAKEPYDTFGFYEYDYWGQGTQVTVSS
  polyreactivity (PSR sort gate): low polyreactivity

## QVHLVDSAGGLVQAGGSLRLSCAASGNIFDYNGMGWYRQAPGKERELVAGINWSGGSTYYADSVKGRFTISRDNAKNTVYLQMNSLTPEDTAVYYCAAECVYDWYPFWRAIYTYDYWGQGTQVTVSS
  polyreactivity (PSR sort gate): low polyreactivity

## QVQIVESGGGLVQAGRSLRLSCAASGLIFRAYAMGWYRQAPGKDRELVAAITRSGGRTYYADSVKGRFTISRDNAKNTVYLQMNTLKPVDTAVYYSAAEYGNTYSSYTYDYWGQGTQVNVSS
  polyreactivity (PSR sort gate): high polyreactivity

## QVQLVESGGGLVQAGGSLRLSCAASGRTFLVYAMGWYRQPPGTERELVAAITSGGSTYYADSVKGRFTISRDNAKNTVYLQMNSLKPEDTAVYYCAAKIRGYPRRRYDYWGQGTQVTVSS
  polyreactivity (PSR sort gate): high polyreactivity

## QVHLVESGGALVQAGGSLRLSCAASGSTFGGYAMGWYRPAPWKERELVAAITRSGGTTYYADSVKGRFTISRDNAKNTVYLQMNSLKPEDTAVYYCAAQGRRRPHQDAPYDYWGQGTQVTVSS
  polyreactivity (PSR sort gate): high polyreactivity

## QVHLVESGGGLVKAGGSLRLSCAASGRTFAQYVMGWYRQAPGKERELVAAITWSGGSSYYADSVKGRFTISRDNAKNTVYLQMNSLKPEDTALYYCAVKGAGGPKDDYWGQGTQVTVSS
  polyreactivity (PSR sort gate): high polyreactivity

## QVQLVESGGGLVQAGGSLRLSCAASGRIFFYNAMGWYRQAPGKERELVAGISRSGTSTYYADSVKGRFTISRDNAKNTVYLQMNSLKPEDTAVYYCAADAWSVILWREMDYWGQGTQVTVSS
  polyreactivity (PSR sort gate): low polyreactivity

## QVQLVESGGGLVQAGGSLRLSCAASGNIFTYYVRGWYRQEPGKERELVAAISRRGGSTYYADSVKGRFTISRDFAKNTVYLQMNSLKPEDTAVYYCAKKYPRDMDYWGQGTQVTVSS
  polyreactivity (PSR sort gate): high polyreactivity

## QVQLVESGGGLVQAGGSLRLSCAASGRIFRRSALGWSRQAPGKEREFVAAISSGGSTYYADSVKGRFTISRDNAKKYRLFTDEQPETGRYRGLLLRCVRYDVNLYDYWGHGTQVTVSS
  polyreactivity (PSR sort gate): low polyreactivity

## QVQHVESRGGLVQAGGSLRLSCAASGRTFFNNVMGWYRQAPGKERELVAAISKSGTRTYYADSVKGRFTISRDNAKNTVYLQMNSLKPEDTAVYYCATGQYLRTSRYYYWGQGTQVTVSS
  polyreactivity (PSR sort gate): high polyreactivity

## QVQLVESGGGLVQAGGSLRLSCAASGSILGHYAMGWYRQAPGKERELVAAISWSGGSTYYADSVKGRFTISRDNAKNTVYLQMNSLKPEDTAVYYCNAAAILYTSAGSLYWYDYWGQGTQVTVSS
  polyreactivity (PSR sort gate): low polyreactivity

## QVQLQESGGGLVQAGGSLRLSCAASGSIYVSVTMGWYRQAPGKERELVASIGRGSTTNHADSVKGRFTISRDNAKNIVYLLMNSLKPEDTAVYYCAALESYGKYHGYWGEGTQVTVSS
  polyreactivity (PSR sort gate): low polyreactivity

## QVQLVESGGGLVQAGGSLRLSCAASGRIYKYYAMGWYRQAPGKETELVAAISISGTNTYYADSVKGRFTISRDNAKNTVYLQMNSLKPEDTAVFYCAARQYTRGYEREYWGQGTQVTVSS
  polyreactivity (PSR sort gate): high polyreactivity

## QVQLVESGGGLVQAGGSLRLSCAASGRTFGRYAMGWYRQAPGKEREFVASMSRRGGTTYYADSVKGRFTISRDNEKNTVYLQMNSLNPEDTAVYYCNADRTVIYDYEYWGQGTQVTVSS
  polyreactivity (PSR sort gate): low polyreactivity

## QVQLVDSGGGLVQAGGSLRLSCAASGSIFGYYAMGWYRQAPGKERELVAAINSGSSTNYADSVKGRFTISRDNAKNTVYLQMNSLKPEDTAVYYCNKDPWYVFHPRGLFLFDYWGQGTQVTVSS
  polyreactivity (PSR sort gate): low polyreactivity

## QVHLVESGGGLVQAGGSLRLSCAASGYIFYAIAMGWYRQAPGKERELVAAISTGGNTNYADSVKGRFTISRDNAKNTVYVQMNSLKPEDTAVYYCAVRSTGPYRWRTPVTRDYWGQGTQVTVSS
  polyreactivity (PSR sort gate): low polyreactivity

## QVQLVESGGGLVQAGGSLRLSCAASGRTFGPYAMGWSRQAPGKERELVAAITWSGGSTYYADSVKGRFTISRDNAKNTVYLQMNSLKPEDTAVYYCAAKFSIWTLKKYYYWGQGTQVTVSS
  polyreactivity (PSR sort gate): high polyreactivity

## QVQLVESGGGLVQAGGSLRLSCAASGSNLGNNDMGWYRQAPGKERQLVAAISRSDVSTFYADSVKGRFTISRDNAKNTVYLQMNSLKPEDTAVSSCAARTGRGDRTRRYYYWGQGTQVTVSS
  polyreactivity (PSR sort gate): high polyreactivity

## QVQHVESGGGLVQAGGSLRLSCAASGSTFRYYAMGWYRQAPGKERELVAAITSSGTSTYYADSVKGRFTISRDNAKNTVYLQMNSLKPEDTAVYSCAAPPVYKWVSSRYDYWGQGTQVTVSS
  polyreactivity (PSR sort gate): low polyreactivity

## KSGGGLVQAGGSLRLSCAASGRIYVEYAMAWYKQAPGKERELVASISWSGDSTYYAESVKGRFTISRDNAKNTVYSQKKSLKPEATAVYYCNADGQVGYAVSYDYWGQGTQVTVSS
  polyreactivity (PSR sort gate): low polyreactivity

## QVQLVESGGGLVQARGSLRLSCAASGSTFDLYAMGWYRQAPGKEREFVAAISSSGGTTYNADSVKGRFTSSRDNAKKTVYLQRKSLKPEDTAVYYCAAVRYYESRGGYDYWGQGTQVTVSS
  polyreactivity (PSR sort gate): low polyreactivity
